Residue numbers refer to the chain shown, from its start. Names and notes keep the numbering of the source.
B1: ALK5, ECFP- or EYFP-tagged (receptor, UniProt P36897 34-503, looked up)
chain: LQCFCHLCTKDNFTCVTDGLCFVSVTETTDKVIHNSMCIAEIDLIPRDRPFVCAPSSKTGSVTTTYCCNQDHCNKIELPTTVKSSPGLGPVELAAVIAGPVCFVCISLMLMVYICHNRTVIHHRVPNEEDPSLDRPFISEGTTLKDLIYDMTTSGSGSGLPLLVQRTIARTIVLQESIGKGRFGEVWRGKWRGEEVAVKIFSSREERSWFREAEIYQTVMLRHENILGFIAADNKDNGTWTQLWLVSDYHEHGSLFDYLNRYTVTVEGMIKLALSTASGLAHLHMEIVGTQGKPAIAHRDLKSKNILVKKNGTCCIADLGLAVRHDSATDTIDIAPNHRVGTKRYMAPEVLDDSINMKHFESFKRADIYAMGLVFWEIARRCSIGGIHEDYQLPYYDLVPSDPSVEEMRKVVCEQKLRPNIPNRWQSCEALRVMAKIMRECWYANGAARLTALRIKKTLSQLSQQEGIKM
notes: ALK5, TGF-β type I receptor; The methods name only the EYFP version; the results use an ECFP-tagged version; also called ALK5-EYFP; source: CHO cells, transiently co-transfected, in living cells
B2: endoglin wild-type, EYFP- or ECFP-tagged (receptor, human, UniProt P17813 26-658, looked up)
chain: ETVHCDLQPVGPERGEVTYTTSQVSKGCVAQAPNAILEVHVLFLEFPTGPSQLELTLQASKQNGTWPREVLLVLSVNSSVFLHLQALGIPLHLAYNSSLVTFQEPPGVNTTELPSFPKTQILEWAAERGPITSAAELNDPQSILLRLGQAQGSLSFCMLEASQDMGRTLEWRPRTPALVRGCHLEGVAGHKEAHILRVLPGHSAGPRTVTVKVELSCAPGDLDAVLILQGPPYVSWLIDANHNMQIWTTGEYSFKIFPEKNIRGFKLPDTPQGLLGEARMLNASIVASFVELPLASIVSLHASSCGGRLQTSPAPIQTTPPKDTCSPELLMSLIQTKCADDAMTLVLKKELVAHLKCTITGLTFWDPSCEAEDRGDKFVLRSAYSSCGMQVSASMISNEAVVNILSSSSPQRKKVHCLNMDSLSFQLGLYLSPHFLQASNTIEPGQQSFVQVRVSPSVSEFLLQLDSCHLDLGPEGGTVELIQGRAAKGNCVSLLSPSPEGDPRFSFLLHFYTVPIPKTGTLSCTVALRPKTGSQDQEVHRTVFMRLNIISPDLSGCTSKGLVLPAVLGITFGAFLIGALLTAALWYIYSHTRSPSKREPVVAVAAPASSESSSTNHSIGSTQSTPCSTSSMA
notes: endoglin (CD105), human, wild type; EYFP-tagged with the ECFP-tagged receptors and with soluble ECFP; ECFP-tagged with the EYFP-tagged mutants; both versions together for the homodimer; also called endoglin^wt-EYFP; endoglin^wt-ECFP; source: CHO cells, transiently co-transfected (50 ng of each construct per 100 000 cells), in living cells; not shown: EYFP (acceptor) or ECFP (donor), C-terminal, …
B3: endoglin G52V, EYFP-tagged (with an ECFP-tagged copy for the homodimer) (receptor, human, UniProt P17813 26-658, looked up)
chain: B2 chain with G27V
notes: endoglin (CD105), human, HHT1 missense mutant G52V; also called mutant G52V; source: CHO cells, transiently co-transfected (50 ng of each construct per 100 000 cells), in living cells; not shown: EYFP (acceptor) or ECFP (donor, homodimer only), C-terminal, kept
B4: endoglin S480C, EYFP-tagged (receptor, human, UniProt P17813 26-658, looked up)
chain: B2 chain with S455C
notes: endoglin (CD105), human, missense mutant S480C (found in a Scottish HHT family); site-directed mutagenesis on pCMV5-endoglin wild type, moved into pEYFP-N1; also called mutant S480C; source: CHO cells, transiently co-transfected (50 ng of each construct per 100 000 cells), in living cells; not shown: EYFP, C-terminal, kept
B5: TβRII, ECFP- or EYFP-tagged (receptor, UniProt P37173 23-567, looked up)
chain: TIPPHVQKSVNNDMIVTDNNGAVKFPQLCKFCDVRFSTCDNQKSCMSNCSITSICEKPQEVCVAVWRKNDENITLETVCHDPKLPYHDFILEDAASPKCIMKEKKKPGETFFMCSCSSDECNDNIIFSEEYNTSNPDLLLVIFQVTGISLLPPLGVAISVIIIFYCYRVNRQQKLSSTWETGKTRKLMEFSEHCAIILEDDRSDISSTCANNINHNTELLPIELDTLVGKGRFAEVYKAKLKQNTSEQFETVAVKIFPYEEYASWKTEKDIFSDINLKHENILQFLTAEERKTELGKQYWLITAFHAKGNLQEYLTRHVISWEDLRKLGSSLARGIAHLHSDHTPCGRPKMPIVHRDLKSSNILVKNDLTCCLCDFGLSLRLDPTLSVDDLANSGQVGTARYMAPEVLESRMNLENVESFKQTDVYSMALVLWEMTSRCNAVGEVKDYEPPFGSKVREHPCVESMKDNVLRDRGRPEIPSFWLNHQGIQMVCETLTECWDHDPEARLTAQCVAERFSELEHLDRLSGRSCSEEKIPEDGSLNTTK
notes: TβRII, TGF-β type II receptor; The methods name only the EYFP version; the results use an ECFP-tagged version; also called TβRII-EYFP; TGF-β type-II receptor; source: CHO cells, transiently co-transfected, in living cells

What was measured:
Experiment in all cases: FRET or BRET; microscopic FRET in living CHO cells, ECFP donor and EYFP acceptor, 50 ng of each construct per 100 000 cells, 24 h after transfection, HEPES buffered ringer solution; FRET index (FI) = FRET efficiency x area with FRET; FI<51 no interaction, 51-99 weak or false positive, >=100 interaction; at least 30 cells per sample
[1] = biological target: B4; conditions: partners not purified
[2] = biological target: B2; conditions: partners not purified
[3] = biological target: the molecule itself

Binder	% of cells clearly FRET-positive (FRET index >=100) [1] [%]	% of cells in FRET index group 2 (FI 51-99, weak or false positive) [1] [%]	mean FRET index of the positive cells [1] [FRET index]	% of cells clearly FRET-positive (FRET index >=100) [2] [%]	% of cells in FRET index group 2 (FI 51-99, weak or false positive) [2] [%]	mean FRET index of the positive cells [2] [FRET index]	% of cells clearly FRET-positive (FRET index >=100) [3] [%]	mean FRET index of the positive cells [3] [FRET index]	% of cells in FRET index group 2 (FI 51-99, weak or false positive) [3] [%]
B1	13	30	129	36	16	243			
B2							100	373	
B3				51	27	222	≥ 75	204	15
B4				65	19	239			
B5	3	10	147	62	18	293			
